Paper PMC8220720, “Universal capability of 3-ketosteroid Δ^1-dehydrogenases to catalyze Δ^1-dehydrogenation of C17-substituted steroids” (Microbial Cell Factories, 2021)

Assays:
Assay in all cases: purified protein
Format in all cases: biochemical, Sterolibacterium denitrificans
purified protein [1] = substrate: CC(C)CCC[C@@H](C)[C@H]1CC[C@H]2[C@@H]3CCC4=CC(=O)CC[C@]4(C)[C@H]3CC[C@]12C; conditions: apparent, as total steroid concentration, DCPIP as acceptor, 2% HBC, 2% EGME, 0.1 M potassium phosphate pH 6.5, 30 °C
purified protein [2] = substrate: C[C@]12CCC(=O)C=C1CC[C@@H]1[C@@H]2CC[C@]2(C)C(=O)CC[C@@H]12; conditions: pH 6.5; 30.0 °C
purified protein [3] = substrate: O=C1C(Cl)=CC(=Nc2ccc(O)cc2)C=C1Cl; conditions: apparent, electron acceptor, co-substrate cholest-4-en-3-one, 2% HBC, 2% EGME, 0.1 M potassium phosphate pH 6.5, 30 °C

B1: AcmB (Sterolibacterium denitrificans) (protein)
chain: MSIETNTYDVIVVGSGAGAMLAAARAHDLGLSVLVVEKSDKYGGTSAVSGGAVWIPNNSQMQIKDSFDEALTYLKAATQGLVAEDRLLAYLESAPQMVEYINANMTLQYFPCHRYPDYYQHLPGAKPGGRTMEPMLFDAALLGDEFANLRMAYTGTLLMGKASMTATEAHVMLAKEPGWMLQVIKSLGRYYLDLPWRLKSRHDRKRGLGNAMAAGLRHALLERKVPLWLNTPFESLITEGAENKRVTGIVVKRNGQTLQLTARRGVVLGAGGFERNQQMREQYLPKPTNAAWSATPPHNTGDTIRAAMDIGARAELMDWAWWVPSIHVPGEAAQTGLFAERNLPGCIVVNGKGQRFINEASPYLEFGAAMYENHARSGSAVPAWLIFDGKFRYNYPMGPLMPGQIQPDRKAWLGKVYWRDDTLEGLAKQIGVDAAGLKQSVELNNQYAQDGKDREFDKGGNVFDRYYGDYNVKPNPCLAPIGKPPYYAMRVDAGDIGTKGGLLTDKDARVLDESDRPIEGLYCIGNNSASVMGKAYPGAGGTLGPAMTFGFRAANHIAASK
notes: recombinant, purified; cloned, expressed and purified as in the authors' earlier work; FAD enzyme
Purified protein [1]
  Km: 23.7 ± 1.16 µM
  kcat: 5.8 ± 0.2 s⁻¹
  kcat/Km: 245000 ± 1000 M⁻¹ s⁻¹
Purified protein [2]
  Km: 529.2 ± 32.5 µM
  kcat/Km: 87000 ± 5000 M⁻¹ s⁻¹
Purified protein [3]
  Km: 37.3 ± 3.3 µM
  kcat: 5.8 ± 0.2 s⁻¹
